Our source for the Kd and koff values is publication PMC9206387, “LILRB2-mediated TREM2 signaling inhibition suppresses microglia functions” (Molecular Neurodegeneration, 2022).

In general, Kd refers to the free concentration of one partner at which half of the binding sites on the other are occupied at equilibrium, for simple one-to-one binding. For orientation: koff means the rate constant with which the complex falls apart.

The target in the assay is T1, oligomeric β-amyloid (1-42) (UniProt P05067 672-713).
T1 construct: the cut product β-amyloid (1-42) of the amyloid precursor protein; Oligomer; The methods of the direct BLI, reporter and BiFc assays name no label for oAβ; also called oAβ; Oligomer Aβ; source: bought: AnaSpec (lyophilized powder); HFIP-treated, dissolved in DMSO, oligomerised in DPBS at 37 °C overnight
Description: BLI; protein A sensor-captured Fc fusion proteins, oAβ at multiple concentrations, 1:1 binding model, KD calculated as kdis/kon. As to conditions: both partners purified.

B1: LILRB2-Fc fusion protein (extracellular domain of LILRB2 fused to human IgG1 Fc) (Fc fusion, UniProt Q8N423 22-460, looked up)
chain: QTGTIPKPTLWAEPDSVITQGSPVTLSCQGSLEAQEYRLYREKKSASWITRIRPELVKNGQFHIPSITWEHTGRYGCQYYSRARWSELSDPLVLVMTGAYPKPTLSAQPSPVVTSGGRVTLQCESQVAFGGFILCKEGEDEHPQCLNSQPHARGSSRAIFSVGPVSPNRRWSHRCYGYDLNSPYVWSSPSDLLELLVPGVSKKPSLSVQPGPVMAPGESLTLQCVSDVGYDRFVLYKEGERDLRQLPGRQPQAGLSQANFTLGPVSRSYGGQYRCYGAHNLSSECSAPSDPLDILITGQIRGTPFISVQPGPTVASGENVTLLCQSWRQFHTFLLTKAGAADAPLRLRSIHEYPKYQAEFPMSPVTSAHAGTYRCYGSLNSDPYLLSHPSEPLELVVSGPSMGSSPPPTGPISTPGPEDQPLTPTGSDPQSGLGRHLGV
notes: leukocyte immunoglobulin-like receptor subfamily B member 2 (LILRB2), extracellular domain (ECD) with four Ig-like domains; source: Expi 293 cells, purified (protein A agarose)
As to B1, the Kd is 69.3 nM and the koff was 0.000593 s⁻¹.

B2: TREM2-Fc fusion protein (extracellular domain of TREM2 fused to human IgG1 Fc) (Fc fusion, UniProt Q9NZC2 19-174, looked up)
chain: HNTTVFQGVAGQSLQVSCPYDSMKHWGRRKAWCRQLGEKGPCQRVVSTHNLWLLSFLRRWNGSTAITDDTLGGTLTITLRNLQPHDAGLYQCQSLHGSEADTLRKVLVEVLADPLDHRDAGDLWFPGESESFEDAHVEHSISRSLLEGEIPFPPTS
notes: triggering receptor expressed on myeloid cells 2 (TREM2), extracellular domain (ECD); source: Expi 293 cells, purified (protein A agarose)
With B2, the Kd is 12.6 nM and the koff was 0.000123 s⁻¹.
